Source: US6613506B1, “Compositions and methods for inhibiting human immunodeficiency virus infection by down-regulating human cellular genes” (Subsidiary No. 3, Inc., priority 2000, dated 2003)

Experiments:
[1] = tested on: HIV-1SF2; assay: Protection of GSE-transduced CEM-ss cells from HIV-1SF2 infection (intracellular p24); type: cell-based; details: HIV-1SF2 at TCID50 of 1000, versus vector (LNGFRM) control
Description: FIG. 2 illustrates the percentage of intracellular p24^+ CEM-ss cells containing the CF-315 sequence (SEQ ID NO:1) after infection with HIV-1SF2 at a TCID50 of 1000. CEM-ss cells (10^6) containing the C-315 construct or control vector DNA (denoted as LNGFRM) were harvested on the indicated days post infection, stained with FITC-conjugated anti-p24 monoclonal antibody and analyzed by flow cytometry. Mock infected cells, -⋄-; LNGFRM vector-infected cells, -[…]-; and C-315 infected cells, -Δ-.
FIG. 3 illustrates the percentage of intracellular p24^+ CEM-ss cells containing various GSEs: CF-004 (SEQ ID NO:7), CF-025 (SEQ ID NO:5), CF-113 (SEQ ID NO:8) and CF-204 (SEQ ID NO:9) after infection with HIV-1SF2 at a TCID50 of 1000. Controls include mock-infected, vector (LNGFRM)-infected and HIV-infected CEM-ss cells.
FIG. 4 illustrates the percentage of intracellular p24^+ CEM-ss cells containing CF-001 (SEQ ID NO:10) after infection with HIV-1SF2 at a TCID50 of 1000. Controls include mock-infected and vector (LNGFRM)-infected cells. […]
In order to determine p24 expression in HIV-infected cells, the cells were first washed twice with Assay Buffer. […] The cells were then washed twice with Wash Buffer and analyzed by flow cytometry. […]

[2] = tested on: HIV; assay: Selection of GSEs from RFE libraries using OM10.1 and CEM-ss cells (strategy not stated per GSE); type: cell-based, HIV-1; details: GSEs matching NADH dehydrogenase subunit genes
Protocol: (§1) The libraries prepared from HL-60 cells according to the method of Section A of this Example, were transfected into the packaging cell line, PA317 (ATCC CRL #9078), and converted into retrovirus for infection of OM10.1 cells. Libraries in pLNCX vector were co-cultured and selected with G418. Libraries in pLNGFRM vector were transduced by spinoculation (centrifugation of target cells at 1200×g for 90 min. in the presence of filtered retroviral supernatant; Dunn et al., 1999, Gene Therapy 6: 133-137) and selected by FACS sorting of the NGFR^+ population. After selection, the OM10.1 cells harboring the entire RFE library were induced with 10 U/mL of TNF-α at 37EC, and 24 hours later, were stained with an antibody and sorted for CD4 expression. Genomic DNA from the CD4^+ cells was purified and used for PCR amplification of inserts with the vector-derived primers. The amplified mixture was digested with EcoRI and BamHI and cloned back into the retroviral vector. The selection was repeated for additional rounds.
Additionally, a normalized RFE library made from HeLa cells was transferred into CEM-ss cells and the neo resistant population was infected with TCID50 of 3000/10^6 cells of HIV-1IIIB. This RFE library was represented by 50×10^6 independent recombinant clones. Four and seven days after infection, a purified anti-CD4 monoclonal antibody, L77 (available from Becton Dickinson), was added at 5 Φg/mL to prevent syncytia formation. Syncytia formation is thought to be prevented by blocking the interaction between gp120 expressed on the surface of an infected cell and CD4 on the surface of an uninfected cell. […] At 10-12 days after infection, CD4^+, p24^− cell population representing uninfected cells were sorted. Genomic DNA from the CD4^+, p24^− cells was purified and used for PCR amplification of inserts with the vector-derived primers. The amplified mixture was digested with EcoRI and BamHI and cloned back into the retroviral vector. The selection was repeated for additional rounds.
One strategy selected for GSEs which suppressed productive infection of cells by HIV. The second strategy selected for GSEs which suppressed induction of the latent provirus in OM10.1 cells. When OM10.1 cells were treated with TNF-α and stained with an antibody specific for the cell surface molecule CD4, a rapid loss of CD4 expression was observed (FIG. 1). In contrast, the vast majority of the uninduced OM10.1 cells retained CD4 expression. It is believed that activation of the latent virus in OM10.1 cells by TNF-α leads to the production of viral protein gp120, which binds to cytoplasmic CD4, thereby preventing its translocation to the cell surface. A diminution of CD4^+ OM10.1 cells also correlates with an increased production of viral protein p24 in the cells following TNF-α induction.
GSEs derived from cDNAs representing expressed human cellular genes were identified and isolated from a RFE library made from HL-60 cells using HIV provirus activation in OM10.1 cells as a read-out. Following transfection of the entire library into a packaging cell line, retrovirus carrying the library was used to infect OM10.1 cells by co-cultivation or spinoculation, and NGFR selection was performed to ensure the retention of the viral vector. When the infected cells were treated with TNF-α a small number of residual CD4^+ cells were detected by an anti-CD4 antibody and sorted by FACS. The GSEs contained in these cells were recovered by PCR amplification and their nucleotide sequences determined.
A total of twenty GSEs were isolated by the two aforementioned selection strategies using OM10.1 and CEM-ss cells. […] CF-315 was further shown to protect uninfected human T cells from a productive HIV-1 infection (FIG. 2). In this experiment, the retroviral vector, pLNGFRM, containing the CF-315 nucleic acid molecule was transferred into CEM-ss cells followed by NGFR selection. Vector containing plasmid DNA (denoted LNGFRM) was used as negative control. […]

[3] = tested on: latent HIV-1 provirus in OM10.1 cells; assay: Selection of GSEs in OM10.1 cells (TNF-α induction of latent provirus, CD4+ sorting); type: cell-based
Protocol: as §1, with “The amplified mixture was digested with EcoRI and BamHI and cloned back into the retroviral vector. The selection was repeated for additional rounds.” left out
GSEs derived from cDNAs representing expressed human cellular genes were identified and isolated from a RFE library made from HL-60 cells using HIV provirus activation in OM10.1 cells as a read-out. […] When the infected cells were treated with TNF-α a small number of residual CD4^+ cells were detected by an anti-CD4 antibody and sorted by FACS. The GSEs contained in these cells were recovered by PCR amplification and their nucleotide sequences determined.

Molecule	inhibition of productive HIV infection (intracellular p24+ cells) [1]	HIV-suppressive activity of the GSE and active orientation [2]	selection of the GSE [3]
CF-315: GSE, SEQ ID NO:1, antisense; NADH dehydrogenase ND6 subunit gene (nucleic acid, listed as Homo sapiens) antisense: AGATCCTATTGGTGCGTGGGCTTTGTATGATTATGGGCGTAGATTAGTAGTAGTTACTGGTTGAACATTGTTTGTTGGTGTATATATTGTAATTGGGATTGCTCGGGGGAATAGGTTATGTGATTAGGAGTAGGG	inhibited infection of human T cells by HIV-1SF2	suppresses HIV replication as an antisense molecule	
CF-061: GSE, SEQ ID NO:19; portion of an unknown human cellular gene (nucleic acid, listed as Homo sapiens) DNA: ACACACAGACACACAGACACAGAGAGACACACAGACACACACACAGAGATACACAGAGACACAGACACAGAAACACTCTGAGAGACACACACACAGAGACACACAGACACACAGACACAGAGAGACACACAGACACACACACACAGAGATACACAGAGACACAGACACAGAAA			selected in OM10.1 cells
